We go through three molecules from paper PMC5725467, “Elongated Hypocotyl 5-Homolog (HYH) Negatively Regulates Expression of the Ambient Temperature-Responsive MicroRNA Gene MIR169”.

For series [1], the target named is T1, HYH.2-His (HYH splice isoform 2) (Arabidopsis thaliana, UniProt Q8W191 1-149).
T1 sequence: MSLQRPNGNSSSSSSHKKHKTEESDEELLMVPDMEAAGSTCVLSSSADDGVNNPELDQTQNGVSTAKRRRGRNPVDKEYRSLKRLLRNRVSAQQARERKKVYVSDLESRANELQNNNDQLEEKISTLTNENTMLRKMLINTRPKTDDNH
In words: competition; 100x, 400x, 1600x molar excess over labeled N1; gradual decrease of shift; EMSA: LightShift Chemiluminescent EMSA Kit (manufacturer's instructions), 100 ng HYH.2-His, room temperature 30 min, 8% native polyacrylamide gel; buffer, salt. As to conditions: protein: recombinant; tags: His (pET28a+); chain copies: 2; label: none; blunt. (Mobility shift assays separate free from complexed probe on a gel.)

Series [2] concerns the target T1, HYH.2-His (HYH splice isoform 2). In words: EMSA; 100 ng protein; EMSA: LightShift Chemiluminescent EMSA Kit (manufacturer's instructions), 100 ng HYH.2-His, room temperature 30 min, 8% native polyacrylamide gel; buffer, salt. The following applies: protein: recombinant; tags: His (pET28a+); chain copies: 2; label: 5'-biotin; blunt.

B1: miR169a G-box-like, unlabeled competitor (dsDNA)
DNA 1: TGTACGGCCACGCAAAAGTGACCTAC
DNA 2: GTAGGTCACTTTTGCGTGGCCGTACA
Regarding B1, the binding result in series [1] is on record as “binds”.

B2: miR169a G-box-like (G) (dsDNA)
DNA 1: TGTACGGCCACGCAAAAGTGACCTAC
DNA 2: GTAGGTCACTTTTGCGTGGCCGTACA
For B2, the binding result in series [2] is recorded as “binds”.

B3: miR169a NC1 (dsDNA)
DNA 1: ATCTTCTGTTTAACAACATATG
DNA 2: CATATGTTGTTAAACAGAAGAT
With B3, in series [2], the binding result is on record as “no binding”.
